This note sets out measurements from paper PMC3347502.

In general, stoichiometry N refers to the number of molecules, sites or subunits per partner or assembly.

The target in the experiment is long-chain neurotoxin NTII/I. The experiment can be described thus: NMR titration.

In turn, “α7ED/C116S/DTES (extracellular domain of human α7 nicotinic acetylcholine receptor with Cys116Ser an (domain or fragment)” displayed a stoichiometry N of 2.
